Kd data for four molecules are collected here from patent US20030138946A1.

The target of this assay is T1, soluble H-2 K^b (K^bsol): heterodimer of truncated K^b heavy chain and murine β-2 microglobulin, purified from Drosophila cells (murine), P01901.
T1 chain 1: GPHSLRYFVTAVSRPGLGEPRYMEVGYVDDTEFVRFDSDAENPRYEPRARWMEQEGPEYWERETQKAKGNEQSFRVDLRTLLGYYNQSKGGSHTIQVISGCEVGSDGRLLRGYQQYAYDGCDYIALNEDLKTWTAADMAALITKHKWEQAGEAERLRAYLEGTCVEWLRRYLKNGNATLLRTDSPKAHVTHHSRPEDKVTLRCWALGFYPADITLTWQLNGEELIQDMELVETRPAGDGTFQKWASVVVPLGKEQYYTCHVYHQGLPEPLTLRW
T1 chain 2: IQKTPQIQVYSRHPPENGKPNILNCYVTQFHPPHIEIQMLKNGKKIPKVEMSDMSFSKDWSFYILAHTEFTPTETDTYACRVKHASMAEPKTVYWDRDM

B1: OVA-10N (peptide)
chain: LESIINFEKL
modifications: not checked
As for B1, the Kd is 280 nM.

B2: OVA-10C (peptide)
chain: SIINFEKLTE
modifications: not checked
On to B2, for which the Kd worked out at 14 nM.

B3: OVA-8 (ovalbumin 257-264) (peptide)
chain: SIINFEKL
modifications: not checked
The molecule B3 came in with a Kd of 4.1 nM.

B4: OVA-9C (peptide)
chain: SIINFEKLT
modifications: not checked
B4: the Kd worked out at 11 nM.
